From the supplement of paper PMC7125110
± gives the standard error. For part of these data: Fewer inactive variants are shown than the library holds.

B1: glmS ribozyme (parent)
chain: AUAAAAGCGCCAGAACUACAGAAAUGUAGUUGACGAGGAGGAGGUUUAUCGAAUUUUCGGCGGAUGCCUCCAAA

Legend:
Details in all cases: with glucosamine-6-phosphate
glucosamine-6-phosphate [1] = variants of: B1; assay: kcat; higher = faster cleavage; RNA array
In short: (§1)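 E. coli RNA polymerase transcribed barcoded ribozyme variants in situ on sequenced MiSeq chips, which were tracked via a hybridised Cy3 probe at 37 °C. Tiles were imaged over ~14 h after glucosamine-6-phosphate (40 μM to 10 mM) in HEPES/KCl/Mg(OAc)2 buffer was flowed in. Normalised per-tile medians were fit to one- or two-exponential decays for kobs, and kcat and KM came from weighted Michaelis–Menten fits.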

glucosamine-6-phosphate [2] = variants of: B1; assay: KM; higher = weaker cofactor use; RNA array
In short: as §1

glucosamine-6-phosphate [3] = variants of: B1; assay: self-cleavage kobs at 10000 uM GlcN6P; higher = faster cleavage; RNA array
In short: as §1

glucosamine-6-phosphate [4] = variants of: B1; assay: self-cleavage kobs at 40 uM GlcN6P; higher = faster cleavage; RNA array
In short: as §1

glucosamine-6-phosphate [5] = variants of: B1; assay: self-cleavage kobs at 160 uM GlcN6P; higher = faster cleavage; RNA array
In short: as §1

glucosamine-6-phosphate [6] = variants of: B1; assay: self-cleavage kobs at 640 uM GlcN6P; higher = faster cleavage; RNA array
In short: as §1

glucosamine-6-phosphate [7] = variants of: B1; assay: self-cleavage kobs at 2500 uM GlcN6P; higher = faster cleavage; RNA array
In short: as §1

| Variant | kcat (glucosamine-6-phosphate [1]) [s⁻¹] | KM (glucosamine-6-phosphate [2]) [µM] | self-cleavage kobs at 10000 uM GlcN6P (glucosamine-6-phosphate [3]) [s⁻¹] | self-cleavage kobs at 40 uM GlcN6P (glucosamine-6-phosphate [4]) [s⁻¹] | self-cleavage kobs at 160 uM GlcN6P (glucosamine-6-phosphate [5]) [s⁻¹] | self-cleavage kobs at 640 uM GlcN6P (glucosamine-6-phosphate [6]) [s⁻¹] | self-cleavage kobs at 2500 uM GlcN6P (glucosamine-6-phosphate [7]) [s⁻¹] |
| --- | --- | --- | --- | --- | --- | --- | --- |
| A12U A33U C67U | 0.000242 ± 4.7e-05 | 6520 ± 2600 | 0.000146 ± 2.9e-05 |  |  |  |  |
| U46G | 0.0111 ± 0.0013 | 2110 ± 340 | 0.00965 ± 0.00026 | 0.000228 ± 4.5e-06 | 0.000671 ± 2.7e-05 | 0.00241 ± 6.1e-05 | 0.00589 ± 0.00015 |
| C16U A52G | 0.00224 ± 0.00092 |  | 0.0016 ± 0.00017 | 3.86e-05 ± 9e-06 | 9.03e-05 ± 2.1e-05 | 0.000237 ± 5.8e-05 | 0.000576 ± 7.9e-05 |
| A15G C67G | 0.00126 ± 0.0001 | 2600 ± 330 | 0.000966 ± 0.00011 |  | 7.63e-05 ± 1.2e-05 | 0.000243 ± 2.4e-05 | 0.000654 ± 6.3e-05 |
| G29C C58A | 0.000126 ± 8e-06 | 1420 ± 280 | 0.000108 ± 1.5e-05 |  |  | 3.49e-05 ± 1.2e-05 | 8.42e-05 ± 1.4e-05 |
| U31G G41C | 0.000172 ± 3.9e-05 |  | 0.000139 ± 2.2e-05 |  |  |  | 0.000167 ± 3.6e-05 |
| C11A G66U | < 1e-05 | 58.7 ± 26 |  | < 1e-05 |  | < 1e-05 | < 1e-05 |
| U49G A53G A64G C67A | 0.000753 ± 0.0002 | 2220 ± 890 | 0.000669 ± 0.00013 | 3.28e-05 ± 1.1e-05 | 5.27e-05 ± 1.4e-05 | 0.00016 ± 2.3e-05 | 0.000369 ± 7.9e-05 |
| A14C U54G | 0.00619 ± 0.0017 | 3310 ± 1300 | 0.00448 ± 0.00056 | 0.00011 ± 1.7e-05 | 0.000219 ± 3.6e-05 | 0.00107 ± 0.00016 | 0.00296 ± 0.00041 |
| U46G U65G | 0.00226 ± 0.00027 | 2130 ± 380 | 0.0019 ± 0.0003 | 4.1e-05 ± 8.8e-06 | 0.000189 ± 3.4e-05 | 0.000467 ± 7.5e-05 | 0.00124 ± 0.00017 |
| A14U U46A | 0.000437 ± 0.0001 | 2000 ± 930 | 0.000323 ± 3.5e-05 |  | 2.43e-05 ± 9.4e-06 | 9.67e-05 ± 1.3e-05 | 0.000343 ± 3.4e-05 |
| A14G A53U | 0.0349 ± 0.012 | 1060 ± 450 | 0.0446 ± 0.0086 | 0.00142 ± 0.00015 | 0.00482 ± 0.00076 | 0.011 ± 0.0013 | 0.0342 ± 0.015 |
| A12U C67U | 0.0497 ± 0.018 | 2250 ± 970 | 0.0378 ± 0.0074 | 0.000918 ± 0.0001 |  | 0.0142 ± 0.0033 | 0.0421 ± 0.012 |
| A42C U46A | < 1e-05 |  |  | < 1e-05 |  | < 1e-05 |  |
| A12U G32U | 0.000501 ± 4.8e-05 | 4270 ± 690 | 0.000345 ± 3.4e-05 |  | 2.63e-05 ± 1.2e-05 | 6.09e-05 ± 8.4e-06 | 0.000196 ± 2.1e-05 |
| U47G G66U | 0.000146 ± 7.9e-06 | 756 ± 130 | 0.000142 ± 1.4e-05 |  | 3.12e-05 ± 1.5e-05 | 6.79e-05 ± 8.7e-06 | 0.000106 ± 1.1e-05 |

| Variant | kcat (glucosamine-6-phosphate [1]) [s⁻¹] | KM (glucosamine-6-phosphate [2]) [µM] | self-cleavage kobs at 10000 uM GlcN6P (glucosamine-6-phosphate [3]) [s⁻¹] | self-cleavage kobs at 40 uM GlcN6P (glucosamine-6-phosphate [4]) [s⁻¹] | self-cleavage kobs at 160 uM GlcN6P (glucosamine-6-phosphate [5]) [s⁻¹] | self-cleavage kobs at 640 uM GlcN6P (glucosamine-6-phosphate [6]) [s⁻¹] | self-cleavage kobs at 2500 uM GlcN6P (glucosamine-6-phosphate [7]) [s⁻¹] |
| --- | --- | --- | --- | --- | --- | --- | --- |
| C11A A36U G37C | < 1e-05 |  |  | < 1e-05 |  |  |  |
| C10A A39G | < 1e-05 |  |  |  | < 1e-05 | < 1e-05 |  |
| G37U G51C | < 1e-05 |  | < 1e-05 |  |  |  |  |
| A48U G66A | 0.000466 ± 2.8e-05 | 7160 ± 740 | 0.00027 ± 4.1e-05 |  |  |  | 0.000123 ± 2.3e-05 |
| G29A U54A | 0.00945 ± 0.0024 | 3150 ± 1100 | 0.00745 ± 0.0014 | 0.000135 ± 2.1e-05 |  | 0.0011 ± 0.00037 | 0.00422 ± 0.00084 |
| G43U A53G | 4.73e-05 ± 1.7e-06 | 793 ± 120 |  | < 1e-05 |  |  | 3.6e-05 ± 1.5e-05 |
| A15U C50G A53U U55A | 3.35e-05 ± 1.6e-05 |  |  |  |  |  | 4.02e-05 ± 1.8e-05 |
| U65C G66A | 0.000598 ± 0.00017 |  | 0.000416 ± 7.9e-05 |  |  | 0.000112 ± 3.9e-05 | 0.000323 ± 0.00014 |
| C10G G60U | 4.68e-05 ± 1.2e-05 |  | 2.05e-05 ± 1e-05 | < 1e-05 | < 1e-05 |  |  |
| C11G A33U U54G C67A C71U | 1.15e-05 ± 1.8e-06 |  |  |  |  |  |  |
| A6U C16U | 0.000238 ± 2.8e-05 | 1970 ± 520 | 0.00021 ± 1.7e-05 |  | 2.54e-05 ± 9.5e-06 | 6.36e-05 ± 7.9e-06 | 0.000118 ± 1.2e-05 |
| G44A A53C | 0.000111 ± 2.5e-05 |  | 0.0001 ± 1.9e-05 |  |  | 4.9e-05 ± 2.1e-05 | 5.83e-05 ± 1.3e-05 |
| C16A G59A | 1.02e-05 ± 3.6e-06 |  |  |  |  |  |  |
| A42G G44C U56A C70U | < 1e-05 |  |  |  | < 1e-05 |  | < 1e-05 |
| C10U C67A | 1.13e-05 ± 2.7e-06 |  |  |  |  |  |  |
| U31G U45A | 0.0285 ± 0.0073 | 2180 ± 720 | 0.0291 ± 0.0063 | 0.000531 ± 0.00011 | 0.00206 ± 0.0004 | 0.00653 ± 0.0013 | 0.0105 ± 0.0037 |
